From US20110008312A1

Molecular target: fibrillin-1 (human) (UniProt P35555)
Assay: cell-based or functional assay

Sequence of UniProt P35555 (P35555 45-2731 limits assumed): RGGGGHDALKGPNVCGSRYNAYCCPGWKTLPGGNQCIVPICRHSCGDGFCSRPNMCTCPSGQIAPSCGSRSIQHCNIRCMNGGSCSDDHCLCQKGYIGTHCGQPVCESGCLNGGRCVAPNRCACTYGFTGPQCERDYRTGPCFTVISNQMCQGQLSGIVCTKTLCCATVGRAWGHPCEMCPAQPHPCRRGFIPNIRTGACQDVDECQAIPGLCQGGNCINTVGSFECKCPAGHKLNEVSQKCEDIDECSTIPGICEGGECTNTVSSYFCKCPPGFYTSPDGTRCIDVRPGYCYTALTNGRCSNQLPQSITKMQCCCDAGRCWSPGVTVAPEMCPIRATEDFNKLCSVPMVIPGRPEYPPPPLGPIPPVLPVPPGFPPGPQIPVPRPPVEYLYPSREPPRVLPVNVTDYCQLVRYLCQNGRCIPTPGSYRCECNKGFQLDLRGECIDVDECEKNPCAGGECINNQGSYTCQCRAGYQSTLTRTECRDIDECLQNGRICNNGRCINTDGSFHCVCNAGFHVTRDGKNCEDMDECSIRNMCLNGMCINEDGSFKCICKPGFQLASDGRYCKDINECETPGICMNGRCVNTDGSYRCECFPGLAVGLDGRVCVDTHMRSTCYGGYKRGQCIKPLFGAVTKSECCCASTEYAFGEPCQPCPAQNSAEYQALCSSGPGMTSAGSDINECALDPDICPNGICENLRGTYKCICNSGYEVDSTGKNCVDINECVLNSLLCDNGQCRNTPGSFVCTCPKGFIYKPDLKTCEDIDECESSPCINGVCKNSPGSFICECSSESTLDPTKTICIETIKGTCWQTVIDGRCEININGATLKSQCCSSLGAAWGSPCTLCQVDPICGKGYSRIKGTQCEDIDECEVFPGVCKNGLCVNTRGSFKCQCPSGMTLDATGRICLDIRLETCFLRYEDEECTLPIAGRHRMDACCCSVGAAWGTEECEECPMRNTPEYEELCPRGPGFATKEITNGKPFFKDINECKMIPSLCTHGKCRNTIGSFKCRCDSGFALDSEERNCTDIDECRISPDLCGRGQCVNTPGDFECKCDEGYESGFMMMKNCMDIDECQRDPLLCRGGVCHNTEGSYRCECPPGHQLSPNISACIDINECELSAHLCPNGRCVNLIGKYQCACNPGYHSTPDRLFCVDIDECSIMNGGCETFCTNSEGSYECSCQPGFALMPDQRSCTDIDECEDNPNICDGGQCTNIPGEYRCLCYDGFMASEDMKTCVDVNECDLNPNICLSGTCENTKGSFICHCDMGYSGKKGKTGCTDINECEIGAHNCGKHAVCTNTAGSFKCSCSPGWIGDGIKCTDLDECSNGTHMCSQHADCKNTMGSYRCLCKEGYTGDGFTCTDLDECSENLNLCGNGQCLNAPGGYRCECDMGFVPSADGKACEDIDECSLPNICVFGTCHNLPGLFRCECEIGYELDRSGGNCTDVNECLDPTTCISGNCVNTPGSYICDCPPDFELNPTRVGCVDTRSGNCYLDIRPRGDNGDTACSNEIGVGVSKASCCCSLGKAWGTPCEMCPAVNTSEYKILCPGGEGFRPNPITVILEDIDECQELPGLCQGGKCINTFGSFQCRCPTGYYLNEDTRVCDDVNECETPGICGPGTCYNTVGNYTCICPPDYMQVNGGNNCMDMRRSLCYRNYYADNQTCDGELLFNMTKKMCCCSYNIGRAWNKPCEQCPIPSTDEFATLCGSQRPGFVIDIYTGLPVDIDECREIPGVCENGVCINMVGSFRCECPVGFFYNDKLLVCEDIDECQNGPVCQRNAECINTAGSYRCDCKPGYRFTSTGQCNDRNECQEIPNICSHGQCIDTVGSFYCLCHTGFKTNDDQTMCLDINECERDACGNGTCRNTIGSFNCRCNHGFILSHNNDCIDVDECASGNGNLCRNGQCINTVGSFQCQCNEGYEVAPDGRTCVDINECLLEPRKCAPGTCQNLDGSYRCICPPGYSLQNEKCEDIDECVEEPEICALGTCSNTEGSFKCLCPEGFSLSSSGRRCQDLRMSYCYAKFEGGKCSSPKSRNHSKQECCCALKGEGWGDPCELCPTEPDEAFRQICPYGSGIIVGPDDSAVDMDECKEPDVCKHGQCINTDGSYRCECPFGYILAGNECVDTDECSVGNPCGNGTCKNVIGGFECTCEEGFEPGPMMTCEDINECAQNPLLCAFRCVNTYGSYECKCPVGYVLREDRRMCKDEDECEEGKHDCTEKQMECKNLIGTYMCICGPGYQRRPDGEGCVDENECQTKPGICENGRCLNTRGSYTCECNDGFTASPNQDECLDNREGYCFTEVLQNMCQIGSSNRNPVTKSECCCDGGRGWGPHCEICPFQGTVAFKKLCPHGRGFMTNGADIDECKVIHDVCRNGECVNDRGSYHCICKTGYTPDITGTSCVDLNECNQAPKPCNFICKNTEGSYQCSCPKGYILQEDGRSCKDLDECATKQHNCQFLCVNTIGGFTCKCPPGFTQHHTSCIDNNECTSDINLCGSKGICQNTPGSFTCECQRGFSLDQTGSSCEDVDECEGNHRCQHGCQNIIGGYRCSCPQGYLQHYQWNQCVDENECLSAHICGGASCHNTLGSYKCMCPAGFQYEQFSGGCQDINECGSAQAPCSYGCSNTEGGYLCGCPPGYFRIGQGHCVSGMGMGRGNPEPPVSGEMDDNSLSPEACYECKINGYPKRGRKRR
Sequence of elastin (P15502 27-786 limits assumed): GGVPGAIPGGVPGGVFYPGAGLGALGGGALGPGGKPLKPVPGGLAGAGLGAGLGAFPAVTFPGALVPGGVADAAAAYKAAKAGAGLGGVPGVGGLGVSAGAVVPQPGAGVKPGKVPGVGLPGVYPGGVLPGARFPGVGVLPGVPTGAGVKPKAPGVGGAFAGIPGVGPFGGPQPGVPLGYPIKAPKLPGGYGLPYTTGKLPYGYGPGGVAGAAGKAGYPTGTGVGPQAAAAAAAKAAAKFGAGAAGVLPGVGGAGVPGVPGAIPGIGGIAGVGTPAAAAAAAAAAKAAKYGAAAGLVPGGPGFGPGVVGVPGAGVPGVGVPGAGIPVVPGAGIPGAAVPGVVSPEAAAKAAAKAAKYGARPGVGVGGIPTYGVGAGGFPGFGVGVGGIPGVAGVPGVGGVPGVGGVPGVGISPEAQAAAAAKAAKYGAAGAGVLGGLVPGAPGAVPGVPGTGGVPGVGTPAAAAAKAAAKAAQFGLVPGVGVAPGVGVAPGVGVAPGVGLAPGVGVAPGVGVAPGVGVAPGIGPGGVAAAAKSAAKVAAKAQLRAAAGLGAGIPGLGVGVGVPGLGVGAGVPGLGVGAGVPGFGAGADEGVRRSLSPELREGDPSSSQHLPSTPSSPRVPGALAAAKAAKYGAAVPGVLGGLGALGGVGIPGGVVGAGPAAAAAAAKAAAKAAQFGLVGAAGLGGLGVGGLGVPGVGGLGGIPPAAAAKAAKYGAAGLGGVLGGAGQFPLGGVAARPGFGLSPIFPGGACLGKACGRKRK

amount of elastin deposition to the extracellular matrix (% vs CS-free), keloid cells, CS-A added: 87%
amount of elastin deposition to the extracellular matrix (% vs CS-free), keloid cells, CS-A and CS-B added: 66.3%
amount of elastin deposition to the extracellular matrix (% vs CS-free), keloid cells, CS-A and CS-C added: 67.4%
amount of elastin deposition to the extracellular matrix (% vs CS-free), keloid cells, CS-A, CS-B and CS-C added: 37.6%
amount of elastin deposition to the extracellular matrix (% vs CS-free), keloid cells, CS-B added: 95.9%
amount of elastin deposition to the extracellular matrix (% vs CS-free), keloid cells, CS-B and CS-C added: 91%
amount of elastin deposition to the extracellular matrix (% vs CS-free), keloid cells, CS-C added: 86.7%
amount of elastin deposition to the extracellular matrix (% vs CS-free), keloid cells, CS-free: 100%
Substance: elastin (from UniProt P15502 27-786)
